Patent US20120042415A1

Biological target: wild type pokeweed antiviral protein (PAP) (pokeweed) (UniProt P10297)
Assay: cell-based or functional assay

Sequence of UniProt P10297 (P10297 23-285 limits assumed): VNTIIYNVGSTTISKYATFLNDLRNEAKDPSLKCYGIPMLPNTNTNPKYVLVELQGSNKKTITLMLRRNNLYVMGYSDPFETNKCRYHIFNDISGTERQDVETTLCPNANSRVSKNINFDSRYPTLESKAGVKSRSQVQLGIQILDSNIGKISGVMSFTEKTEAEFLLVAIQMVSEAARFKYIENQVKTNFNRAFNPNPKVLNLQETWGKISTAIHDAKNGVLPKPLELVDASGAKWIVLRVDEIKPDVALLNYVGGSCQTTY

Substance: yeast wild type ribosomal protein L3 (full length) (from UniProt P14126 1-387)
- transformation frequency of tobacco with L3+PAP (NT243): 24%
